Tests used:
[1] = molecular target: T1, glycocalicin (the proteolytic fragment of GPIb) (human, UniProt P07359 17-506); assay: SPR, comparison of Kd with that of VWF A1 on glycocalicin
T1 construct: domain: glycocalicin (the proteolytic fragment of GPIb); Purified from human platelets; coated on the SPR sensor
Source text: (§1) The sensorgrams at different concentrations were obtained and normalized by subtracting background signals from the glycocalicin surface.

[2] = molecular target: T1, glycocalicin (the proteolytic fragment …); assay: SPR, ligand perfused over glycocalicin-coated sensor, Langmuir one-to-one fit
Source text: as §1

B1: Activated protein C (APC), human plasma-derived (enzyme)
chain 1: ANSFLEELRHSSLERECIEEICDFEEAKEIFQNVDDTLAFWSKHVDGDQCLVLPLEHPCASLCCGHGTCIDGIGSFSCDCRSGWEGRFCQREVSFLNCSLDNGGCTHYCLEEVGWRRCSCAPGYKLGDDLLQCHPAVKFPCGRPWKRMEKKRSHL
chain 2: LIDGKMTRRGDSPWQVVLLDSKKKLACGAVLIHPSWVLTAAHCMDESKKLLVRLGEYDLRRWEKWELDLDIKEVFVHPNYSKSTTDNDIALLHLAQPATLSQTIVPICLPDSGLAERELNQAGQETLVTGWGYHSSREKEAKRNRTFVLNFIKIPVVPHNECSEVMSNMVSENMLCAGILGDRQDACEGDSGGPMVASFHGTWFLVGLVSWGEGCGLLHNYGVYTKVSRYLDWIHGHIRDKEAPQKSWAP
notes: mature
[1]
  fold difference against the interaction of GPIb and VWF A1: ~10 fold
[2]
  Kd: 308 nM

— patent US20100184672A1 (published 2010)
